According to patent US20150344535A1 (UNIVERSITY OF QUEENSLAND, published 2015):

T1: p75^Δ-JUX (UniProt P07174 30-425)
T1 construct: whole, on cells; In HEK293 lysate in the co-immunoprecipitation, on HEK293 cells in the NGF-FITC assays; also called p75^NTR with an intracellular juxtamembrane deletion
T1 sequence (looked up): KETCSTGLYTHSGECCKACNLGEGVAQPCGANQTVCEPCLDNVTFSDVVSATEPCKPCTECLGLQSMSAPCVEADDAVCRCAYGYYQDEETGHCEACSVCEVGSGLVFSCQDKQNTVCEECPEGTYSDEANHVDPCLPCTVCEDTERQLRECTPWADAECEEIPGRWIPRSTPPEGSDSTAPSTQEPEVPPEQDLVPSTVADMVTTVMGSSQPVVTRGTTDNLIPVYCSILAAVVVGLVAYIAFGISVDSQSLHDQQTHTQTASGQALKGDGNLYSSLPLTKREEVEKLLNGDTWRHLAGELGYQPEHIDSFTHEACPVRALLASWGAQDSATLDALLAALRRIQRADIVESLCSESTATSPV

T2: p75^FL on transfected HEK293 cells (UniProt P07174 30-425)
T2 construct: whole, on cells; also called p75^NTR
T2 sequence (looked up): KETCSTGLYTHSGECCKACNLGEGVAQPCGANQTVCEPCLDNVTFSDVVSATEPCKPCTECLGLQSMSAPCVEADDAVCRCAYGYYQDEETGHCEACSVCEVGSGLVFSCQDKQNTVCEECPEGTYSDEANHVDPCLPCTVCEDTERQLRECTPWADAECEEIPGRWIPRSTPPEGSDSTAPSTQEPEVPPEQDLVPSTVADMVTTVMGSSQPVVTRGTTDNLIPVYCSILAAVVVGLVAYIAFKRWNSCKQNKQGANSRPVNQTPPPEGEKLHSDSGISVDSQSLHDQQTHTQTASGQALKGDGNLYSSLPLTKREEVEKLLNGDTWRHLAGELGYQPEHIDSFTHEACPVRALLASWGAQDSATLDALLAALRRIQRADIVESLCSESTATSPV


Key:
TrkAK538A [1] = biological target: T3, TrkAK538A; assay: real-time flow cytometry, Hill-Slope association curve, TrkAK538A-expressing HEK293 cells pre-treated with c29
T3 construct: whole, on cells; On transfected HEK293 cells in flow cytometry; in HEK293 lysates in the co-immunoprecipitations; also called TrkK538A

p75^Δ-JUX [2] = biological target: T1, p75^Δ-JUX; assay: flow cytometry, 26 nM NGF-FITC 60 min on ice, transfected HEK293 cells
Description: (§1) To investigate NGF binding, PC12 or transfected HEK293 cells were serum starved for 4 hours, harvested, washed with Dulbecco's Modified Eagle Medium (DMEM), and counted. When used, c29 or scrambled peptide were added to cultures for the third hour of the serum starvation procedure.

TrkAK538A [3] = biological target: T3, TrkAK538A; assay: as above
Description: as §1

[4] = biological target: T2, p75^FL on transfected HEK293 cells; assay: as above
Description: as §1

p75^Δ-JUX [5] = biological target: T1, p75^Δ-JUX; assay: flow cytometry competition against 26 nM NGF-FITC, transfected HEK293 cells
Description: as §1

TrkAK538A [6] = biological target: T3, TrkAK538A; assay: as above
Description: as §1

[7] = biological target: T2, p75^FL on transfected HEK293 cells; assay: as above
Description: as §1

[8] = biological target: T4, TrkAK538A and p75^FL co-expressed on HEK293 cells (UniProt P07174 30-425); assay: flow cytometry competition against 26 nM NGF-FITC, co-transfected HEK293 cells
T4 construct: whole, on cells; Two receptors on the same cells; also called TrkAK538A + p75^FL
Description: as §1

[9] = biological target: T5, TrkAK538A and p75^Δ-JUX co-expressed on HEK293 cells (UniProt P07174 30-425); assay: as above
T5 construct: whole, on cells; Two receptors on the same cells; also called TrkAK538A + p75^ΔJUX
Description: as §1

Row | Binder | fold faster association rate against untreated TrkAK538A-expressing cells (TrkAK538A [1]) [fold] | % of cells with fluorescence intensity above background (p75^Δ-JUX [2]) [%] | % of cells with fluorescence intensity above background (TrkAK538A [3]) [%] | % of cells with fluorescence intensity above background [4] [%] | excess of unlabelled NGF required for NGF-FITC binding to fall to background fluorescence (p75^Δ-JUX [5]) [fold] | excess of unlabelled NGF required for NGF-FITC binding to fall to background fluorescence (TrkAK538A [6]) [fold] | excess of unlabelled NGF required for NGF-FITC binding to fall to background fluorescence [7] [fold] | excess of unlabelled NGF required for NGF-FITC binding to fall to background fluorescence [8] [fold] | excess of unlabelled NGF required for NGF-FITC binding to fall to background fluorescence [9] [fold]
1 | NGF-FITC (ligand, mouse, UniProt P01139 122-239, looked up, conjugated to FITC, also called fluorescently labelled NGF; FITC-NGF) SSTHPVFHMGEFSVCDSVSVWVGDKTTATDIKGKEVTVLAEVNINNSVFRQYFFETKCRASNPVESGCRGIDSKHWNSYCTTTHTFVKALTTDEKQAAWRFIRIDTACVCVLSRKATR | ~3 | 80 | 80 | 80 |  |  |  |  | 
2 | unlabelled NGF (ligand, mouse, UniProt P01139 122-239, looked up, also called unlabeled NGF) SSTHPVFHMGEFSVCDSVSVWVGDKTTATDIKGKEVTVLAEVNINNSVFRQYFFETKCRASNPVESGCRGIDSKHWNSYCTTTHTFVKALTTDEKQAAWRFIRIDTACVCVLSRKATR |  |  |  |  | 1000 | 1000 | 1000 | 1000 | 1000
